In patent US20240293553A1, “P-SELECTIN INHIBITORS AND USES THEREOF” (Beth Israel Deaconess Medical Center, Inc., priority 2021, published 2024):
Square brackets hold non-standard residues; d marks the D form. Ends that are not written are not given here. F∗ = phenylalanine sulfonate

Target: human P-selectin-Ig chimera (human) (UniProt P16109)
Assay: SPR (Biacore): biotinylated ligand on streptavidin chip, P-selectin-Ig flowed at 0.4-100 nM

Chain of human P-selectin-Ig chimera (human) (P16109 42-771, change not shown): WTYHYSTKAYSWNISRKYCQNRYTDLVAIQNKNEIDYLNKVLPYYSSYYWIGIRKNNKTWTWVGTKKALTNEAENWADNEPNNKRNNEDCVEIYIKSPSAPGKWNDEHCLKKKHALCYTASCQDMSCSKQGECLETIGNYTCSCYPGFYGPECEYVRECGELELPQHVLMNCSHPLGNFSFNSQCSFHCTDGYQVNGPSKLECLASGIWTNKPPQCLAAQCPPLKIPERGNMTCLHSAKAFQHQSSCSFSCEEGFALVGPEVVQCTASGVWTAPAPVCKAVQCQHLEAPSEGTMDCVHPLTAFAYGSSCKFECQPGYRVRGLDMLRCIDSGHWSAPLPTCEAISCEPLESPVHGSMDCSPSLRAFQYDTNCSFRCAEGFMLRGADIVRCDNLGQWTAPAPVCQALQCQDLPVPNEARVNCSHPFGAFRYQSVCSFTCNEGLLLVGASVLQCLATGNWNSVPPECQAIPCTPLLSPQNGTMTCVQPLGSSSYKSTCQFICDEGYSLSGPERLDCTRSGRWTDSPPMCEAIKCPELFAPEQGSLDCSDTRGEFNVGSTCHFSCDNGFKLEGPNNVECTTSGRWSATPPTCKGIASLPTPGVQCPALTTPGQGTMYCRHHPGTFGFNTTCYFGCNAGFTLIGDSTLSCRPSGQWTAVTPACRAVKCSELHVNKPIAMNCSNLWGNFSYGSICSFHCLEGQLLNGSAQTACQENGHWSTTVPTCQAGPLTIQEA

Kd: 27 nM
Binder: KE[F∗]E[F∗]LD[F∗]DFLPET(Neu5Acα2‑3Galβ1‑4(Fucα1-3)GlcNAcβ1‑6(Galβ1-3)GalNAcα)EPL [GSnP-6]
